B1: LINE1-mini (parent)
chain: GGCAGAGCUCAACACAGCGUGGCAAAGUGGCUGUGGCUAGACUGCC

Variants of: B1
Experiment: self-cleavage, relative activity (ratio to wild type); higher = more cleavage; in vitro, sequencing; the parent is a self-cleaving ribozyme

In order of rising self-cleavage:
1. A12C A39G  0
2. G36C U43G  0
3. A12G A39G  0.01
4. G1C A11G  0.01
5. U20C U38G  0.01
6. C10G A41C  0.01
7. G19U C37G  0.02
8. G2U U43G  0.02
9. U9C G29C  0.02
10. A12C C42G  0.02
11. A16U U34G  0.02
12. A11C U20C  0.02
13. A11C A39C  0.02
14. C8A C10G  0.02
15. C10A A41U  0.02
16. G2U G5U  0.02
17. C8U C10G  0.02
18. C18A G40C  0.03
19. A12C G40C  0.03
20. U9C U38A  0.03
21. C10A A11U  0.03
22. C37G A41U  0.03
23. C10A U32C  0.03
24. A39G C42G  0.03
25. C31A U38G  0.03
26. A11G G33A  0.03
27. C15G U28G  0.04
28. A11C U32C  0.04
29. A16U C31G  0.04
30. U20C U32G  0.04
31. C31U U34G  0.04
32. G1U G40C  0.04
33. C10U U43A  0.04
34. A24U G36U  0.05
35. U32C U34A  0.05
36. G1C G5A  0.05
37. A14U C37G  0.05
38. C31U G44U  0.05
39. U34C C42G  0.05
40. U9A A16U  0.06
41. C15G C37A  0.06
42. A12G G40A  0.06
43. G2C G29C  0.06
44. G33A A39U  0.06
45. G7C A12G  0.06
46. C3U A12C  0.06
47. A25G U34A  0.06
48. G27U A41C  0.06
49. A39G C46U  0.07
50. C15G A26U  0.07
51. C13A G40C  0.07
52. A41C C46G  0.07
53. U34G C37G  0.07
54. A11U C18A  0.07
55. G17C U34A  0.07
56. G17C C37A  0.07
57. C13U A25G  0.07
58. U34A C46G  0.08
59. G1U G35A  0.08
60. C15A G44A  0.08
61. C23G U43A  0.08
62. G2U G19A  0.08
63. C10A G21A  0.08
64. C15U A41C  0.08
65. A16G U34C  0.08
66. G44U C46G  0.08
67. U32A C37U  0.08
68. G5A C18G  0.09
69. A6G U34C  0.09
70. C18A U38C  0.09
71. C13A A16U  0.09
72. C3G A12G  0.09
73. A6G G17C  0.09
74. C13U C46G  0.09
75. C31A C37U  0.09
76. U9G C15A  0.1
77. G7U A25U  0.1
78. G1A G36U  0.1
79. G22U G36C  0.1
80. G5A A16C  0.1
81. C31U C45G  0.1
82. C31A G33C  0.1
83. C13U U32A  0.11
84. G5A G17U  0.11
85. A6G G7A  0.11
86. C13A U20A  0.11
87. C8U C15A  0.11
88. A11U G17C  0.12
89. U32G C45U  0.12
90. A4C G40C  0.12
91. G35U C45U  0.12
92. A4U A41U  0.12
93. G30A U43A  0.12
94. C31G U43A  0.13
95. G5A G22U  0.14
96. C15U U43A  0.14
97. C15A C23U  0.14
98. G27C G44C  0.14
99. C8U G27A  0.14
100. C8U G27U  0.14
101. C15U G40A  0.14
102. C8A C31G  0.15
103. C10G A24U  0.15
104. G7U A14G  0.15
105. G40U C45U  0.15
106. U32C C37A  0.15
107. C10U G44A  0.15
108. U32C C46A  0.16
109. C8U G17C  0.16
110. G17U U20A  0.16
111. U9A A39C  0.17
112. U9A U28A  0.17
113. G21U G40U  0.18
114. A14G C37U  0.19
115. A25U C45G  0.19
116. U9A C13A  0.2
117. C3U C45A  0.2
118. A6U C13A  0.2
119. A14C U38A  0.21
120. U20A C45G  0.21
121. A4U G30C  0.21
122. C8A G17C  0.22
123. G22A G35A  0.23
124. C10U G19C  0.24
125. G1U G22A  0.25
126. A25G C42U  0.26
127. C3U G7A  0.26
128. G17U G22A  0.26
129. G22U G44U  0.27
130. C8U A12U  0.29
131. C13G C23A  0.29
132. U38C G44A  0.3
133. A6C G19C  0.3
134. C15G G22U  0.3
135. G19U U38C  0.3
136. G21A G36A  0.3
137. G1A C31U  0.32
138. A25U G29C  0.38
139. A6U G27A  0.42
140. A39U C46U  0.46
141. G2A G21C  0.46
142. C23U U38A  0.47
143. A25G G27U  0.48
144. G22A A24C  0.48
145. C18A U38A  0.49
146. G21U G27C  0.54
147. G19C U20C  0.61
148. A16G G22U  0.63
149. G2A G29C  0.65
150. U28A C46U  0.66
151. G1A A26C  0.78
152. G17C A25U  0.87
153. G2A G21U  0.89
154. A41U C46U  0.9
155. C23U U38C  0.93
156. G21C A25G  0.94
157. C18A C23A  1.02
158. G1A A25U  1.09
159. A24G G30A  1.11
160. G27A C46A  1.19
161. A25U  1.21
162. G21A G27C  1.22
163. C15U G21A  1.23
164. A26G G30C  1.27
165. G17C G22A  1.3
166. C18U G27U  1.63
167. G21C G30A  1.86
